This series deals with T1, TnpB (ISDra2) (Deinococcus radiodurans (ISDra2), UniProt Q7DF80 1-408).
T1 sequence: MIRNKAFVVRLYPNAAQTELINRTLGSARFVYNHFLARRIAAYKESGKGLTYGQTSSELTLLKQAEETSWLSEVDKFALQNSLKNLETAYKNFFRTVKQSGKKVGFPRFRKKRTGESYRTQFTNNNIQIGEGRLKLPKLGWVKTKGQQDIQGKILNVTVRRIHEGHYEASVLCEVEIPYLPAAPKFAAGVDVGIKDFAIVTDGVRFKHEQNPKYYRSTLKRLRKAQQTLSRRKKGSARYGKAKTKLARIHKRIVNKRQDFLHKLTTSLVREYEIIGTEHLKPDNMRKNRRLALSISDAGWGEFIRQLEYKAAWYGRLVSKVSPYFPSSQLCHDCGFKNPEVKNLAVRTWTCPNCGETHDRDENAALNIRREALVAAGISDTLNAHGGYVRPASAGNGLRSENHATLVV
As to the kind of experiment: co-purification (urea-PAGE, northern blot); bound RNA is 5'-processed, 100-160 nt; Ternary complex: TnpB–ωRNA + target DNA, room temperature 30 min; SEC in 20 mM Tris-HCl pH 8.0, 150 mM NaCl, 2 mM MgCl2, 10 uM ZnCl2, 1 mM DTT. Copurification:
The conditions noted are these: protein: recombinant; tags: N-terminal MBP, removed with HRV3C; pseudoknot, stems 1-3, triple helix.

B1: ωRNA full length (as co-expressed) (structured_RNA)
RNA: GAUUCAAGAAUCCCGAAGUGAAGAAUCUUGCCGUCCGUACAUGGACUUGCCCGAACUGUGGGGAAACCCAUGACCGAGACGAGAACGCUGCGCUGAACAUUCGGCGUGAAGCGUUGGUGGCUGCGGGAAUCUCAGACACCUUAAACGCUCAUGGAGGCUAUGUCAGACCUGCUUCGGCGGGCAAUGGUCUGCGAAGUGAGAAUCACGCGACUUUAGUCGUGUGAGGUUCAAGAGUCCCUUGGCGCCC
Regarding B1, the binding result is given as “binds”.

The values above are taken from article PMC10097598, “Cryo-EM structure of the transposon-associated TnpB enzyme”.
